Target: T1, R-M-CspCI endonuclease-methyltransferase subunit (Citrobacter species 2144 (NEB#1398))
T1 construct: also called large subunit; R-M-subunit
T1 chain: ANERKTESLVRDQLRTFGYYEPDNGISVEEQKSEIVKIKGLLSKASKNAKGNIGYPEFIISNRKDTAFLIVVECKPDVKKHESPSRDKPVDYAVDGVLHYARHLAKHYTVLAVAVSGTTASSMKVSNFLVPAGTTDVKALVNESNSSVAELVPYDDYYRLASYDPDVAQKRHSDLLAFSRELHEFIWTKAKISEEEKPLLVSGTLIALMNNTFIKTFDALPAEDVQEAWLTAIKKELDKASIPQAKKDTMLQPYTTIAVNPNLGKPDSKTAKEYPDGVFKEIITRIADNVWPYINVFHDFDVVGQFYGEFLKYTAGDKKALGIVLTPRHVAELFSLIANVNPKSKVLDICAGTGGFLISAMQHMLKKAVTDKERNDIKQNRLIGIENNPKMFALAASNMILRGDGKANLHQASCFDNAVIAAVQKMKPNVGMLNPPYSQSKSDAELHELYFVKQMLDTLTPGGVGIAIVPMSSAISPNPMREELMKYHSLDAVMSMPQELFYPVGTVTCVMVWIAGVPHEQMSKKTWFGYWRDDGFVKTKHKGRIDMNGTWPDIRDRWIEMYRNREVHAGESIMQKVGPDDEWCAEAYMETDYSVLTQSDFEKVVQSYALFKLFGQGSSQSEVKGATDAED
Experiment: HPLC of purified CspCI; molar ratio derived from the mass ratio 1:0.47

B1: CspCI specificity subunit (S-CspCI) (other)
chain: PKINDLFHLEYGHSLELNRLEQSTAADAVNFVGRAARNNGVTARVAPPPNLKPAAAGTISVALGGQGGAGVAFLQPRPYFCGRDVMVLTPKKHMTDQEKLWWVMCITANRFRFGFGRQANRTLKDLNLPAPQKTPSWVHTANPDAYQGVRSPASVHPVGTLAVSNWKAFILQDLFTIRKGQRLTKANMLPGTVPYIGASDTSNGVTAHIGQKPIHEGGTISVTYDGSIAEAFYQPSPFWASDAVNVLYPKGFTLTPATALFICAIIRMEKYRFNYGRKWHLERMRETVIRLPATATGAPDWDFMEKYIKTLPYSSQLQ
notes: also called small subunit; S-subunit
molar ratio (70 kDa : 35 kDa protein in the purified enzyme): 1.06 mol small subunit per mol large subunit

Reference: patent US20070166719A1 (NEW ENGLAND BIOLABS, published 2007)
